Assay: yeast display, Sf9 membrane polyspecificity reagent, FACS + sequencing; frameworks hold sequencing errors
Procedure, shortened: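 Synthetic nanobody libraries on Saccharomyces cerevisiae BJ5465 were galactose-induced for 36–48 hours, stained 1 hour at 4 °C with 10% biotinylated, detergent-solubilized Sf9 membrane reagent and enriched on streptavidin microbeads. FACS then separated cells into low and high (top ~1%) gates by anti-HA (expression) and streptavidin (reagent binding) fluorescence. Genes were colony-PCR amplified, MiSeq 2 × 250 sequenced and CDR-length filtered. A clone's polyreactivity label is that of its gate of origin.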

Row | Sequence | polyreactivity (PSR sort gate)
1 | QVQLVESGGGLVQAGGILRLICAASGSTFSTYAMGWYRPAPGKERELVAAIRFSGGTTYYADSVKGRFTISRDNAKNSVYLQMYCLKPEDTAVYYCAAVYISRNFFGRARGDYWGQGTEVTVSS | low polyreactivity
2 | QVQLVESGGGLVQAGGILRLSCAAAGFIFYRYAMGWYREAPGKEREFVAAISRSGGSTYYADSVKGRFTISRDNAKNTVYLQMNSLKPEDTAVYYCAAGRVTISYFQDRLTTYDYWGQGTQVTVSS | high polyreactivity
3 | QVQLVESGGGLVQAGGILRLSCAASGFIFWDYAMGWYRQAPGTERELVADISDSGGDTYYADSVKGRFTISRDNAKNTVYLQMNSLKPEDTAVYYCAADVELWVFRGQQYDYWGQVTQVTVSS | low polyreactivity
4 | QVQLVESGGGLVQAGGILRLSCAASGFIFYFYAMGWYRQAPGKERELVAAISWSGGSTYYADSVKGRFTISRDNAKINVYLQMNSLKAEDTAVYFCAADLYHKYDYWGQGTQVTVSS | low polyreactivity
5 | QVQLVESGGGLVQAGGILRLSCAASGFTFGPNTMGWNRQAPGKERELVAAISRSGGSTYYADSVKGRFTISRDNAKNTVYLQMNSLNPEDTAVYYCAAYSPLSGGRMDYWGQGTQVNVSS | high polyreactivity
6 | QVQLVESGGGLVQAGGILRLSCAASGFTFISNAMGWYRQAPGKERELVAAISSSGGRTYYADSVKGRFTISRDNAKNTVYLQMNRLKPEDTAVYYCNADRSLLYSRKIEYDYWGQGTQVTVSS | low polyreactivity
7 | QVQLVESGGGLVQAGGILRLSCAASGFTFLAYAMGWYRQAHGKERELVAAISAYSGRTRYADSVKGRFTISRDNAKNTVYLQMNSLKPEDTAVNYCAARYRGTYRRDYWGQGTQVTVSS | high polyreactivity
8 | QVQLVESGGGLVQAGGILRLSCAASGFTFTYYAMGWYIQAPGKERELVAAITRDDSTNYADSVKGRFTISRDNAKNTVYLQMNSLKPEDTAVYYCAADSWYPSYGYWGQGTQVTVSS | low polyreactivity
9 | QVQLVESGGGLVQAGGILRLSCAASGIIFDTNAMGWYRQAPGKERELVASISKRGGSTYYADSVKGRFTISRDNAKNTVYFQMNSLKPEDTAVYYCNALRRRLYHDDYWGQGTQVTVSS | high polyreactivity
10 | QVQLVESGGGLVQAGGILRLSCAASGIIFRVNAMGWYRKAPGKERELVAAISGSGGRTYYADSVKGRFTISRDNAKNTVYLQMNSVKPEDTAVYYCAAHLLHYRGDYWGQGTQETVSS | high polyreactivity
11 | QVQLVESGGGLVQAGGILRLSCAASGIIFVSYDRGWYRQAPGKERELVAAINRGGRTYYADSVKGRFTISRDNAKNTVYLQMNSLKPEDTAVYYCAAQFHFRPFSWTYDYWGQGTQVTVSS | high polyreactivity
12 | QVQLVESGGGLVQAGGILRLSCAASGITFRCYAMVWYRQAPGKERELVAAITTGGSTKYADSVKGRFTISRDNAKKSVYLQMNSLKPEDTAVYYCAARGRYAGGYWGQGTQVTVSS | high polyreactivity
13 | QVQLVESGGGLVQAGGILRLSCAASGITFRYYAMGWYRQAPGKERELVAAITGNGGGTYADSVKGRFTISRDTAKYTGYLQMNSLKPEVTAVNYCSADYGRRWGYDYWGQGTQVTVSS | low polyreactivity
14 | QVQLVESGGGLVQAGGILRLSCAASGITFVRNAMGWYRQAPGKDREFVAAINSIVGRTYYADSVKGRFTISRDNAKNTVYLQMNSLKPEDTAVYDCAADSNVRYGMDYWGLGTQVTVSS | low polyreactivity
15 | QVQLVESGGGLVQAGGILRLSCAASGLIFGYYDMGWYRQARGKEREFVAGITYRGSSTYYADSVKGRFTISRDNAKNTVYLQMNSLKPEDTAVYYCAKYKRKKLTTNYYYWGQGTQVTVSS | high polyreactivity
16 | QVQLVESGGGLVQAGGILRLSCAASGLIFIGYAMGWYRQAPGKERELVASIRGVGSTNYADSVKGRFTISRDNAKNTVYLQMNSLKPEDTAVYYCATSVDRALYTQTRGDYDYWGQGTQVTVSS | low polyreactivity
17 | QVQLVESGGGLVQAGGILRLSCAASGLIFITYAMGWYRQAPGKERELVATITLRGGSTYYADSVKGRFTISRDNAKNTVYLQMNSLKPEDTAVYYCAADVGYWGRSRGYPSDDYDYWGQGTQVTVSS | low polyreactivity
18 | QVQLVESGGGLVQAGGILRLSCAASGNILRFNARGWYRPAPGKEMELVAAISRSGGTTYYADSEKGRFTISRDYAKNTVYLQMNSLKPEDTAVYYCADRYRYGESPGYYWGHGTQVTVSS | high polyreactivity
19 | QVQLVESGGGLVQAGGILRLSCAASGRIFGSYAMGWYRQAPGKERELVAVITKRGDSTYYADSVKGRFTISRDNAKNTVYLQMNSLKPEDTAVYYCNARVYPGYSFWAVFGYDYWGQGTQVTVSS | low polyreactivity
20 | QVQLVESGGGLVQAGGILRLSCAASGRIFHRYTMGWYRQAPGKEREFVAAITTRAGSTYYADSVKGRFTISRDNAKYTVYLQMNSLKPEDTAVYYCNIRRHSLFGGTTTRYDYWGQGTQVTVSS | high polyreactivity
21 | QVQLVESGGGLVQAGGILRLSCAASGRIFLTYAMGWYRQAPGKERELVAAIRSRSGTTYYADSVKGRFTISRDNAKNTVYLQMNSMKPEDTAVYYCAAGGKSRSYYWGQGTQVTVSS | high polyreactivity
22 | QVQLVESGGGLVQAGGILRLSCAASGRIFRGYAMVWYRQAPGKERELVAAISNGGGTNYADSVKGRFTISRDNAKNTVYLQMNSLKPEDTAVYYFATGFLQNYYKYTSSFRFYYWGQGTQVSVSS | high polyreactivity

Row | Sequence | polyreactivity (PSR sort gate)
23 | QVQLVESGGGLVQAGGILRLSCAASGRIFVLNPMGWSRQAPGKERELVAASSGSGSRTYYADSVKGRFTISRDNAKNTVYLQMNSLKPEDTEVYYCNTVSRRSEHTYDYWGQGTQVTVSS | high polyreactivity
24 | QVQLVESGGGLVQAGGILRLSCAASGRIFYVNAMGWYRQAPGKERELVATIRRGGDTNYADSVKGRFTISRDNAKNTVYLQMNSLNPEDTAVYYCAAKAYQSSYQRYYWGQGTQVTVSS | high polyreactivity
25 | QVQLVESGGGLVQAGGILRLSCAASGRITFSHNTMGWYIQAPGKERELVAAISSGGRTNYADSVKGRFTISRDNAKNTVYLQMNSLKPEDTAVYYCARESHYDFIYDGMDYWGQGTQVTVSS | low polyreactivity
26 | QVQLVESGGGLVQAGGILRLSCAASGRTFAPYTMGWYRQAPGKERELVAVITRRDGRTYYADSVKGRFTISRDNAKNTFYLQMKSLKPEDNAVYYCCFLPADWYRPVRYLRTDSDYWGQGTKVTVSS | low polyreactivity
27 | QVQLVESGGGLVQAGGILRLSCAASGRTFFSNAMGWYRQAPGKEREFVAAISNGDNTYYADSVKGRFTISSDNAKNTVYLQMNSLKPDDTAVYYCAADQYWSWIYYPVVEYDYWGLGTQVTVSS | low polyreactivity
28 | QVQLVESGGGLVQAGGILRLSCAASGRTFNSYAMGWYRQAPGKERELVAAISWIGGSTYYADSVKGRFTISRDNAKNTVYLQMNSLKPEDTAVYYCAADSYRFYSGYYYWGQGTQVTVSS | low polyreactivity
29 | QVQLVESGGGLVQAGGILRLSCAASGRTFYSNAMGWYRQAPGKARELVAAISRSGGRTYYADSVKGRFTISRDNAKISVYLQMNSLKTEDTAVYYCNKVRQNSSMDYWGQGTQVTVSS | high polyreactivity
30 | QVQLVESGGGLVQAGGILRLSCAASGSIFPFYAMGWYRQAPGKERELVATISWSGGRTYYADSVKGRFTISRDNANNTVYFQMNSLKPEVTAVYYCAAQSYDYWYDYDYWGQGTQVTVSS | high polyreactivity
31 | QVQLVESGGGLVQAGGILRLSCAASGSIFSFYAMGWYRQAPGKERELVAAITRSGGTYYADSVKGRFTISRDNAKNTVYLQMNSLKPEDTAVYYCAAQYWYYYIWWEYYYWGQGTQVTVSS | low polyreactivity
32 | QVQLVESGGGLVQAGGILRLSCAASGSIFTRYAMGWYRQAPGKEREFVAAITWRGGRTSYADSVKGRFTISRDKAKNTVYLQMNSLKPEDTAVYYCNRRYPYRTYDYWGQGTQVTVSS | high polyreactivity
33 | QVQLVESGGGLVQAGGILRLSCAASGSIFYAYAMGWNRQAPGKEAEFVARISGSGGSTYYADSVKGRFTISRDNAKNTVYLQMNSLKPEDTAVYYCAATRERYKYYKRYYWGQGTQVTVSS | low polyreactivity
34 | QVQLVESGGGLVQAGGILRLSCAASGSIIVYNSMVCYRQAPGKERELVARITGRGGRTYYADSVKGRFTISRDNAKNTVYLQMNSLKPEDTAVYYCAKYGYWGQGTQVTVSS | high polyreactivity
35 | QVQLVESGGGLVQAGGILRLSCAASGSIYYAMGWYRQAPGKERELVAGINSSGSTNYADSVKGRFTISRDNAKNTVYLQMNSLKPEDTAVYYCAARAIVSFDYWGQGTQVTVSS | low polyreactivity
36 | QVQLVESGGGLVQAGGILRLSCAASGSNFAPYAMGWYRQSPGKERELVATISASGGTTYYADSVKGRFTISRDTAKNTVYLQMNSLKPEDTAVYYCNADSNWYYLGNYYGLNDYWGQGTQVTVSS | low polyreactivity
37 | QVQLVESGGGLVQAGGILRLSCAASGSTFYQYAMGWYRQAPGKERELVAAITRGGRTYYADSVKGRFTISRDNAKNTVYLQMNSLKPEDTAVYYCAAGYRTAYRGSSYYYWGQGTQVTVSS | high polyreactivity
38 | QVQLVESGGGLVQAGGILRLSCAASGSTSYIYAMGWYRQAPGKERELVAAITWRTGRTYYADSVKGRFTISRDNAKNTVYLQMNSLKPEDTAVYYCAATYYLSFAVKMYYWGQGTQVTVSS | high polyreactivity
39 | QVQLVESGGGLVQAGGILRLSCAPSGSTFTFYAMGLYRQAPGKERELVAAINSSGGRTYYADSVKGRFTISRDNAKNTVYLQMNSLKPEDTAVYYCAARRPLVRYIMGYWGQGTQVTVSS | high polyreactivity
40 | QVQLVESGGGLVQAGGILRLSCASSGRIFTRYAMGWYRPAPGKEREFVAAINYRGSSTYYADSVKGRFTISRDNAKNTVYLQMNSLKPEETAVDYCNTYGQTDTYWRYYYWGQGTQVTVSS | high polyreactivity
41 | QVQLVESGGGLVQAGGILRLSCASSGRTFRYYAKGWYRQAPGKERELVATISKSGGSTYYADSVKGRFTISRDNAKNTVYLQMNRLKPEDTAVYYCAAVGPYRWYDYWGQGTQVTVSS | high polyreactivity
42 | QVQLVESGGGLVQAGGILRLSCDASGRIFYTYAMGWYRHGPGQERELVAAISRSGTSTYYADSLKGRFTIARDNEKNHVYLQMNSLKPEDTAVYYCAIYKRLPDYGYWGQGTLVTVSS | high polyreactivity
43 | QVQLVESGGGLVQAGGILRLSCDASGSIFVYNAMGWYRQAPGKERELVAGITFIGGSTYYADSVKGRFTISRDNAKNTVYLQMNSLKPEDTAVYYCNADVAPGIFYGYDSWGQGTQVTVSS | low polyreactivity

From the nanobody polyreactivity screen of Harvey et al. (2022)
